Measured values as given in US20020045591A1, “Methods and therapeutic compositions for treating cancer” (priority 1998, published 2002).

Biological target: Endogenous β-catenin of SW480 human colon carcinoma cells (human) (UniProt P35222)
Assay: cell-based or functional assay

Sequence of Endogenous β-catenin of SW480 human colon carcinoma cells (human) (P35222 2-781): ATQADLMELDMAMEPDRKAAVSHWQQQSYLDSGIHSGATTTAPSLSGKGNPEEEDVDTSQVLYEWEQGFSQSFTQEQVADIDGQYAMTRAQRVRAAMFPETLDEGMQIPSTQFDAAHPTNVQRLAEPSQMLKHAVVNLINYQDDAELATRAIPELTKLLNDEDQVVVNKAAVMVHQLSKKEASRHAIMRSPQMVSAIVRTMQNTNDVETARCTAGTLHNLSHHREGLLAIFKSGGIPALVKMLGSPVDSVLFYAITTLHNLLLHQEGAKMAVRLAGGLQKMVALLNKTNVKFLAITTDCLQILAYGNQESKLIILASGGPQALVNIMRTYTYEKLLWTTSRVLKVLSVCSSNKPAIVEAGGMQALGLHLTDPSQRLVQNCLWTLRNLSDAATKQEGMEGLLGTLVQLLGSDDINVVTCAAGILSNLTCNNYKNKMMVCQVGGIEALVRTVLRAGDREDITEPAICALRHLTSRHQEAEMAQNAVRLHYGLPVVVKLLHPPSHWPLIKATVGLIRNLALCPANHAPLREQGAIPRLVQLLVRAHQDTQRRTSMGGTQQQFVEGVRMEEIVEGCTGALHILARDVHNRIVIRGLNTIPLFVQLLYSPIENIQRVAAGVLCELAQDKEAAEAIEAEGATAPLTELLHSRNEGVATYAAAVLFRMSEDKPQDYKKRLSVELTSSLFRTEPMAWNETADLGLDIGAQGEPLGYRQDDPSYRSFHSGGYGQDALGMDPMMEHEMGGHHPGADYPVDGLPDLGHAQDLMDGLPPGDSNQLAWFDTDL

inhibition of luciferase activity (LEF-1-driven transactivation) in SW480 cells | inhibition of TOPFLASH-responsive transcription (luciferase) in SW480 cells | Substance
80% | – | Cytoplasmic tail of N-cadherin (amino acids 752-912) fused to the C-terminus of GFP (from UniProt B2KI42 746-906)
70% | – | GFP-N71 (C-terminal 71 amino acids of N-cadherin, residues 842-912, fused to the C-terminus of GFP) (from UniProt B0KW95 836-906)

Continued, substance first:

Substance | inhibition of luciferase activity (LEF-1-driven transactivation) in SW480 cells | inhibition of TOPFLASH-responsive transcription (luciferase) in SW480 cells
Cytoplasmic tail of mouse E-cadherin (amino acids 735-884) fused to the C-terminus of GFP (from UniProt P09803 720-869) | 75% | –
GFP-E72 (C-terminal 72 amino acids of mouse E-cadherin, residues 813-884, fused to the C-terminus of GFP) (from UniProt P09803 798-869) | 60% | –
IL2R/N-cadherin chimera (extracellular and transmembrane domains of IL2Rα fused to the intracellular domain of N-cadherin, amino acids 752-912) | – | 50%
